The text below walks through data of paper PMC3435532.

For the series, the system named is FLI1-CTD K4bR. The experiment in a line: EMSA. The note with it: non-acetylated baseline; normalized to Coomassie; Non-radioactive EMSA: 1 ug protein, 500 fmol biotinylated dsDNA, binding buffer per Uren et al. 2004 (not given); 6% gel in 0.5x TBE; protein stock 20 mM ….

“ets-binding site oligonucleotide (wild type)”: the binding signal (fold vs non-acetylated wild type) came out at 1.
